# Source: patent US20030008291A1 (RIKEN, published 2003)
# Key:
# UvrA [1] = target: T1, UvrA; assay: SPR (BIAcore), His-tagged β domain immobilised on Ni-NTA sensor chip, UvrA injected, without ATP (- ATP)
# T1 construct: UvrA was the analyte in the BIAcore experiment
# UvrA [2] = target: T1, UvrA; assay: SPR (BIAcore), His-tagged β domain immobilised on Ni-NTA sensor chip, UvrA injected, with ATP (+ ATP)
binder,measurement,setting,value
UvrB-β (enzyme) RNLVVERGKPYPREVLLERLLELGYQRNDIDLSPGRFRAKGEVLEIFPAYETEPIRVELFGDEVERISQVHPVTGERLRELPGFVLFPA,Kd,UvrA [1],2600 nM
same,koff,UvrA [1],0.52 s⁻¹
same,kon,UvrA [1],200000 M⁻¹ s⁻¹
same,Kd,UvrA [2],400 nM
same,koff,UvrA [2],0.06 s⁻¹
same,kon,UvrA [2],150000 M⁻¹ s⁻¹
